Read-outs that look alike come from different tables or passages of the source.
How the values were obtained:
[1] = molecular target: Rluc-BmOrco (Bombyx mori)
[2] = molecular target: T1, YFP-BmOR3 (Bombyx mori, UniProt Q5FBE0 1-439); assay: FRET or BRET; arrestin recruitment BRET in living HEK293 cells; YFP-BmOR3 (WT or mutant) with Rluc-fused arrestin; bombykal for 10 min; pertussis toxin without effect; enhanced by BmOrco coexpression
T1 construct: BmOR3, pheromone (bombykal) receptor of Bombyx mori; also called N-terminal YFP-tagged BmOR3; YFP-WT-BmOR3; source: HEK293, transfected, in living cells; not shown: YFP, N-terminal, kept
T1 sequence (looked up): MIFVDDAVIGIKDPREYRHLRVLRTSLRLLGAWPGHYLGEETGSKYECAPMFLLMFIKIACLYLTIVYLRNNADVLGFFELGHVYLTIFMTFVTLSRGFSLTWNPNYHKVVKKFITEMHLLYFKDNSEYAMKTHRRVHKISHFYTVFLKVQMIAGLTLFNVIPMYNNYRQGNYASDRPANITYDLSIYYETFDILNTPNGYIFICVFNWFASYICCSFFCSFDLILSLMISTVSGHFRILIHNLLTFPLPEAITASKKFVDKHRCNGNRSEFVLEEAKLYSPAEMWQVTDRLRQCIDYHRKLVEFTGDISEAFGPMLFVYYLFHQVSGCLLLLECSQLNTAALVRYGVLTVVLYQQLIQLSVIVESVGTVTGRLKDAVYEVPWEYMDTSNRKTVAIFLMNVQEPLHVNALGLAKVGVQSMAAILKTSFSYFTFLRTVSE

[3] = molecular target: Rluc-BmArr; assay: intermolecular BRET; details: read off a plot
[4] = molecular target: Rluc-BmOrco; assay: intermolecular BRET; details: bombykal-induced, read off a plot
[5] = molecular target: T1, YFP-BmOR3; assay: intermolecular BRET; details: bombykal-induced, read off a plot
[6] = molecular target: T2, BmOR3 (Bombyx mori, UniProt Q5FBE0); assay: Arrestin recruitment BRET assay; assay type: cell-based; details: HEK293 cells; pretreatment
Procedure: HEK293 cells were transiently cotransfected with the N-terminal YFP-tagged BmOR3 together with N-terminal Rluc-fused β-arrestin-1, β-arrestin-2, or BmArr plasmids. Twenty-four hours after transfection, cells were distributed into a 96-well microplate and incubated for additional 24 h. The cells were stimulated with varying concentrations of bombykal for 10 min, and the BRET signal between YFP (530 nm) and Rluc (485 nm) was measured after the addition of the Rluc substrate coelenterazine h (5 μM) using a Mithras LB 940 multimode reader (Berthold Technologies). The BRET signal was calculated as the ratio of emission of YFP to Rluc.

[7] = system: BmOR3 and BmOrco; assay: CalfluxVTN Ca2+ assay (BRET-based calcium sensor); assay type: cell-based, Bombyx mori; details: HEK293 cells; pretreatment 100 ng/ml
Procedure: HEK293 cells were cotransfected with plasmids encoding WT BmOR3 and BmOrco or their mutants, or AT1R together with CalfluxVTN probe. 24 h after transfection, cells were redistributed into 96-well flat-bottomed microplates. After another 24 h, cells were incubated with conventional buffer with Ca^2+ (135 mM NaCl, 5 mM KCl, 1 mM CaCl2, 5 mM D-glucose, 10 mM Hepes; pH = 7.4) or with Ca^2+-free buffer (135 mM NaCl, 5 mM KCl, 1 mM EGTA, 5 mM D-glucose, 10 mM Hepes; pH = 7.4), and stimulated with different concentrations of Bombykal (or AngII). The BRET ratio between Venus and Nluc was measured before (baseline) and after the addition of the Nluc substrate furimazine (5 μM) using a Mithras LB 940 multimode reader (Berthold Technologies). The BRET signal was calculated as ratio of emission of Venus (530 nm) to Nluc (460 nm). The baseline value was subtracted from the bombykal-stimulated BRET signal to obtain the ΔBRET value.

[8] = molecular target: T3, BmOR3–BmOrco (Bombyx mori, UniProt Q5FBE0); assay: BmOR3–BmOrco intermolecular BRET assay; assay type: cell-based; details: HEK293 cells; pretreatment 100 ng/ml
T3 sequence (Q5FBE0 1-439): T1 sequence (looked up)
T3 sequence (Q7YT34 1-472 partner): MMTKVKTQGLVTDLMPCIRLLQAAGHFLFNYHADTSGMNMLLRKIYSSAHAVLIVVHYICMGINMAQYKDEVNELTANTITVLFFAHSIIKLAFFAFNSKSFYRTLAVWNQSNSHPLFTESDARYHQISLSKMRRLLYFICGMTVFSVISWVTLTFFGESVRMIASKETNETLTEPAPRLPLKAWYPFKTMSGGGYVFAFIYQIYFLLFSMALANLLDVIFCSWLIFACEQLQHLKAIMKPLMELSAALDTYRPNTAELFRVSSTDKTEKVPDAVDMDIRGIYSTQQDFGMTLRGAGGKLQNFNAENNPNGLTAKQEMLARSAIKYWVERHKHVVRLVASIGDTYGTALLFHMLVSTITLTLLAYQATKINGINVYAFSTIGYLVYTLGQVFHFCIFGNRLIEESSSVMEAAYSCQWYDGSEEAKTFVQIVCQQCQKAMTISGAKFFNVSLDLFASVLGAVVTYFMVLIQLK
Procedure: HEK293 cells were cotransfected with the N-terminal Rluc-tagged WT BmOR3 together with N-terminal YFP-fused BmOrco plasmids or their mutants. Twenty-four hours after transfection, cells were distributed into a 96-well microplate. After another 24 h, the cells were stimulated with different concentrations of bombykal for 5 min. BRET between RLuc and YFP was measured using a Mithras LB 940 multimode reader after the addition of the RLuc substrate coelenterazine h (5 μM). The BRET signal was calculated as the ratio of emission of YFP (530 nm) to RLuc (485 nm). For the saturation BRET between Rluc-BmOrco and YFP-BmOR3, HEK293 cells were transfected with a fixed amount of Rluc-BmOrco and increasing amounts of YFP-BmOR3. The BRET signal between RLuc and YFP was directly measured after the addition of the substrate coelenterazine h (5 μM).

[9] = molecular target: T2, BmOR3; assay: Arrestin-kinase BRET assay; assay type: cell-based; details: HEK293 cells transfected with BmOR3; pretreatment
Procedure: Twenty-four hours after transfection, cells were distributed into a 96-well microplate. After another 24 h, the cells were stimulated with 1 μM bombykal (for BmOR3-transfected cells) or 1 μM AngII for 10 min (for AT1R-transfected cells). BRET between RLuc and YFP was measured using a Mithras LB 940 multimode reader after the addition of the RLuc substrate coelenterazine h (5 μM). The BRET signal was calculated as the ratio of emission of YFP (530 nm) to RLuc (485 nm).

[10] = molecular target: T1, YFP-BmOR3; assay: FRET or BRET; G protein recruitment BRET in living HEK293 cells; YFP-BmOR3 with Gi-Rluc; increasing bombykal for 2 min; net BRET after subtracting cells with Gi-Rluc only; net BRET also without bombykal; BmOrco coexpression without significant effect; details: partners not purified
[11] = bombykal-stimulated, parent: est. 0.012
[12] = HEK293 cells, bombykal, parent: est. 0.612
[13] = HEK293 cells, vehicle, parent: est. 0.592
[14] = HEK293 cells, parent: est. 0.053
[15] = HEK293 cells, parent: est. 0.027

YFP-BmOR3 (from UniProt Q5FBE0 1-439) (receptor)
bombykal (1 μM)-stimulated Ca2+ response (CalfluxVTN BRET sensor) in HEK293 cells coexpressing BmOR3 and BmOrco, relative to angiotensin II through AT1R (% of the AT1R response) [1]: 70

Rluc-BmArr (natural protein)
EC50 of bombykal for the BRET increase (quantity not given) [2]: 90 nM

YFP-BmOR3 (from UniProt Q5FBE0) T25A; S26A; T42A
response [3, 11]: 0.0024 ΔBRET

YFP-BmOR3 (from UniProt Q5FBE0) S26A
response [3, 11]: 0.008 ΔBRET

YFP-BmOR3 (from UniProt Q5FBE0) W33A
response [3, 12]: 0.605 BRET Ratio | response [3, 13]: 0.595 BRET Ratio

YFP-BmOR3 (from UniProt Q5FBE0) W383A
response [3, 12]: 0.603 BRET Ratio | response [3, 13]: 0.59 BRET Ratio

YFP-BmOR3 (from UniProt Q5FBE0) L410A; L412A
response [4, 14]: 0.04 ΔBRET

YFP-BmOR3 (from UniProt Q5FBE0) W103A
response [3, 12]: 0.605 BRET Ratio | response [3, 13]: 0.594 BRET Ratio

YFP-BmOR3 (from UniProt Q5FBE0) V394A; L398A
response [4, 14]: 0.041 ΔBRET

YFP-BmOR3 (from UniProt Q5FBE0) T25A
response [3, 11]: 0.0082 ΔBRET

Rluc-BmOrco L451A; L458A
response [5, 15]: 0.029 ΔBRET

YFP-BmOR3 (from UniProt Q5FBE0) W286A
response [3, 12]: 0.605 BRET Ratio | response [3, 13]: 0.593 BRET Ratio

YFP-BmOR3 (from UniProt Q5FBE0) W209A
response [3, 12]: 0.604 BRET Ratio | response [3, 13]: 0.592 BRET Ratio

Rluc-BmOrco F427A; I430A
response [5, 15]: 0.031 ΔBRET

Rluc-BmOrco V428A; V431A
response [5, 15]: 0.031 ΔBRET

YFP-BmOR3 (from UniProt Q5FBE0) E403K
response ([4]; parent: est. 0.038): 0 ΔBRET

Rluc-BmOrco K437E
response [5, 15]: 0.005 ΔBRET | response ([5]; parent: est. 0.038): 0 ΔBRET

pertussis toxin [PTX]
effect of pretreatment on bombykal-induced β-arrestin recruitment to BmOR3 [6]: not affected | effect of pretreatment on bombykal-induced complex-regulated calcium influx [7]: no significant effects | effect of pretreatment on bombykal-induced BmOR3–BmOrco complex formation [8]: no significant effects | effect of pretreatment on bombykal-induced association of β-arrestin with ERK, SRC, and AKT [9]: not significantly affected

Rluc-BmOrco Y464A; V467A; L468A; L471A
response [5, 15]: -0.006 ΔBRET | response ([5]; parent: est. 0.015): -0.005 ΔBRET

YFP-BmOR3 (from UniProt Q5FBE0) F428A; F433A
response [4, 14]: 0.003 ΔBRET | response ([4]; parent: est. 0.015): 0.003 ΔBRET

YFP-BmOR3 (from UniProt Q5FBE0) T42A
response [3, 11]: 0.0086 ΔBRET

YFP-BmOR3 (from UniProt Q5FBE0) R391E; K392E
response [4, 14]: 0.041 ΔBRET

YFP-BmOR3 (from UniProt Q5FBE0) I396A; M399A
response [4, 14]: 0.042 ΔBRET

B1: N-terminal Rluc-fused β-arrestin-1 (natural protein, UniProt P49407 1-418, looked up)
chain: MGDKGTRVFKKASPNGKLTVYLGKRDFVDHIDLVDPVDGVVLVDPEYLKERRVYVTLTCAFRYGREDLDVLGLTFRKDLFVANVQSFPPAPEDKKPLTRLQERLIKKLGEHAYPFTFEIPPNLPCSVTLQPGPEDTGKACGVDYEVKAFCAENLEEKIHKRNSVRLVIRKVQYAPERPGPQPTAETTRQFLMSDKPLHLEASLDKEIYYHGEPISVNVHVTNNTNKTVKKIKISVRQYADICLFNTAQYKCPVAMEEADDTVAPSSTFCKVYTLTPFLANNREKRGLALDGKLKHEDTNLASSTLLREGANREILGIIVSYKVKVKLVVSRGGLLGDLASSDVAVELPFTLMHPKPKEEPPHREVPENETPVDTNLIELDTNDDDIVFEDFARQRLKGMKDDKEEEEDGTGSPQLNNR
notes: β-arrestin-1; also called βarr1; source: HEK293, transfected, in living cells; not shown: Rluc, N-terminal, kept
EC50 of bombykal for the BRET increase (quantity not given) ([2]; partners not purified): 91.1 ± 1.61 nM

B2: Gi2-Rluc (natural protein, UniProt P04899 1-355, looked up)
chain: MGCTVSAEDKAAAERSKMIDKNLREDGEKAAREVKLLLLGAGESGKSTIVKQMKIIHEDGYSEEECRQYRAVVYSNTIQSIMAIVKAMGNLQIDFADPSRADDARQLFALSCTAEEQGVLPDDLSGVIRRLWADHGVQACFGRSREYQLNDSAAYYLNDLERIAQSDYIPTQQDVLRTRVKTTGIVETHFTFKDLHFKMFDVGGQRSERKKWIHCFEGVTAIIFCVALSAYDLVLAEDEEMNRMHESMKLFDSICNNKWFTDTSIILFLNKKDLFEEKITHSPLTICFPEYTGANKYDEAASYIQSKFEDLNKRKDTKEIYTHFTCATDTKNVQFVFDAVTDVIIKNNLKDCGLF
notes: G protein alpha subunit Gi2 (Gαi2); also called Gαi-Rluc; Rluc-tagged Gi protein; source: HEK293, transfected, in living cells
EC50 of bombykal for the BRET increase [10]: 22 ± 3.22 nM

B3: Gi3-Rluc (natural protein, UniProt P08754 1-354, looked up)
chain: MGCTLSAEDKAAVERSKMIDRNLREDGEKAAKEVKLLLLGAGESGKSTIVKQMKIIHEDGYSEDECKQYKVVVYSNTIQSIIAIIRAMGRLKIDFGEAARADDARQLFVLAGSAEEGVMTPELAGVIKRLWRDGGVQACFSRSREYQLNDSASYYLNDLDRISQSNYIPTQQDVLRTRVKTTGIVETHFTFKDLYFKMFDVGGQRSERKKWIHCFEGVTAIIFCVALSDYDLVLAEDEEMNRMHESMKLFDSICNNKWFTETSIILFLNKKDLFEEKIKRSPLTICYPEYTGSNTYEEAAAYIQCQFEDLNRRKDTKEIYTHFTCATDTKNVQFVFDAVTDVIIKNNLKECGLY
notes: G protein alpha subunit Gi3 (Gαi3); also called Gαi-Rluc; Rluc-tagged Gi protein; source: HEK293, transfected, in living cells
EC50 of bombykal for the BRET increase [10]: 10.6 ± 2.06 nM

From paper PMC8477192, “An ionic lock and a hydrophobic zipper mediate the coupling between an insect pheromone receptor BmOR3 and downstream effectors” (The Journal of Biological Chemistry, 2021)
